Laboratory results published in paper PMC7096706.

Target: Trypanosoma cruzi farnesyl pyrophosphate synthase (Trypanosoma cruzi)
Assay: dynamic light scattering; stock solution of tcFPPS thawed from -80°C directly before analysis; Zetasizer Ultra; distribution by volume analysis; monomer to dimer

## Trypanosoma cruzi farnesyl pyrophosphate synthase (enzyme)
  stoichiometry N: 2
